Assay results from the DeepSol protein solubility set.

Assay: soluble on expression in E. coli; label from the status in PepcDB or PDB records

| Sequence | soluble on expression in E. coli |
| --- | --- |
| MSLSSDRLIYLPLGGAGEIGMNAYVYGYGKPGKERLILVDLGVTFPDMDTTPGVDLIMPDIAWLAKNRDRLEAVFITHAHEDHVGAVAHLYDRLGAPVYARAFTANIARRKMGEHGHPDEAVTTVSAWPEMTEAGPFQVGFVPLSHSIPESSGLVIDTPAGRIVHSGDFKLDENPIVGEAFDRKLWEEVAKPGVKVFACDSTNVMSRHPGRSESSVGGEIEKLVGTAEGVFVATTFASNVARVLTLAEAGQRAGRSVCLLGRAMRRMIEAAIETGVLADFPRTVSPEDARNIPRENLMLIVTGSQGERRAASAQLANGKYQGIELKEGDMFLFSSKTIPGNERGVLRIVNQLSEKGVDVIDDSSGLYHVSGHANRPDLETMHEILQPEILVPMHGEHRHLREHVKLADKRGIKGILAVNGMMIDLTGEGHHHHHH | soluble |
| MRASPTSPPEQVVVDASAMVDLLARTSDRCSAVRARLARTAMHAPAHFDAEVLSALGRMQRAGALTVAYVDAALEELRQVPVTRHGLSSLLAGAWSRRDTLRLTDALYVELAETAGLVLLTTDERLARAWPSAHAIG | soluble |
| MGSDKIHHHHHHMIHEQDVQKLLNYITSHFGVDPERWFHPEGYQSIALAILDSIYSTGNRYTGVLNLVNRYCGLRANEGSHPEADTATDLIETFYRWGGVDEFVLKTNNRWRTSSKIHAPYKAYAALEAAKVLAGHSIESISDVVGRFDSRESREHSDIAREWLMITGQSSALTWSYFLMLVGVPGVKADRMIVRFVTHVLERPKEISRHEASRLIEEVADIMCVNYIYLDHTIWRFQSGRPYLQEDSSPFE | not soluble |
| MNYAFVVQARLGSTRLPGKILKPFYGNQSILDLMVHKLSAISNIPVIIATTNSVINEPIEKKALALGVKCFRGEENDVLKRFIDVAEYFDIQGIFRICSDNPFLDVHAARQLVEIAMKSCNDYISFDIDGTPSIKTHFGFWGEFVTLDALKRVIGFTDDLLYREHVTNYIYSHPELFNIQWISGSPVVSKHHNIRLTIDTLEDFSVAQRIYRDLQEKRVEISIEVIVDYVRRHAEYIQLMKQQIKKNSKLEHHHHHH | soluble |
| MAHHHHHHMSTSYSVTTYMTTTYVNCEDVSGSDSEYSEYDLVNEQMQDFLLDSEDTSDGDADVEDILGFGAVFMGGLMPTRSMDAHQACAWRRTTKPNRRRIAKKSESCSSLSNAARLTASSSTTMLSDLDTVVREAVVTGGAAQRRGTRKQRRAMASGERRWLVPPLSAVSVESTDGGNDGRRQLPWFTVVFDLDETLVGARYGPIHLRPHVGELLRSLHRLPVEIIVWTAGTAHYVNPILHAIGQACGRRQWFHHIISRHKRWYRDTNVSVKDLRQLGRPLDRLVMVENNPISALPQPSLCVLLEDYLQPNAADESLLVLKGLLERLALQYERAARTSSATGTCEQASEEECPAQRHTRSPRNTLRDATATRTTALPSLELLVRDDAALQLVEFRMEDILKEDGVPMLQQAEMRELVGGADTLRCLCLCYTPPLLPSSTAVAPQGTAALMSCVSMAMRSYGSVNPLRPL | not soluble |
| MSLRVLGIETSCDETAVAVLDDGKNVVVNFTVSQIEVHQKFGGVVPEVAARHHLKNLPILLKKAFEKVPPETVDVVAATYGPGLIGALLVGLSAAKGLAISLEKPFVGVNHVEAHVQAVFLANPDLKPPLVVLMVSGGHTQLMKVDEDYSMEVLGETLDDSAGEAFDKVARLLGLGYPGGPVIDRVAKKGDPEKYSFPRPMLDDDSYNFSFAGLKTSVLYFLQREKGYKVEDVAASFQKAVVDILVEKTFRLARNLGIRKIAFVGGVAANSMLREEVRKRAERWNYEVFFPPLELCTDNALMVAKAGYEKAKRGMFSPLSLNADPNLNVEGHHHHHH | soluble |
| MSEELPNITTSEKKSFLQSLFSCLFQSEPKNREDLVEVIRDSLENELIDNDTKEMMEGVMEISELRVRDIMIPRPQIVYIDANLPLEACVDLIIESAHSRFPVILDDGKDNIQGMLLAKDLLKYLRSDSAPFDMQKMLRPAVIVPESKRVDRMLKEFRSERFHMAIVVDEFGAVSGLVTIEDILEQIVGDIEDEFDEEEIEPIRQLSRHTYAVSALTDIEKFNAVFATDFVDEEVDTIGGLVMQAFSHLPQRGEQVNLHGIDFKVTSADSRRLIQLRVTVSDEQLEQMERITDLEE | not soluble |
| MSQLSFADVFNMAREAADNSPVIQAGQQIAEMVPTVQRMMSEQYSRSRFIRVFKDTGRHLGRWEVFSDFLSLAASELDMARIRTPESMENCRKICARYGATDIANMQEMFCLMVCALEAKFHDFLGAIFMELELGDNFRGQYFTPYSVQCLMARMLMPGVRDTIRREGIATVSDPACGAAGMLIAYAECLLEADINPSMHMFGSCIDIDPVAADMAFIQLSLLGIAAEVVTGNTLTMQYRRVRYTPVYYLNAFEKRLADLRRFRAMRDFLRGIQEAA | not soluble |
| MVAIIFDMDGVLYRGNRAIPGVRELIEFLKERGIPFAFLTNNSTKTPEMYREKLLKMGIDVSSSIIITSGLATRLYMSKHLDPGKIFVIGGEGLVKEMQALGWGIVTLDEARQGSWKEVKHVVVGLDPDLTYEKLKYATLAIRNGATFIGTNPDATLPGEEGIYPGAGSIIAALKVATNVEPIIIGKPNEPMYEVVREMFPGEELWMVGDRLDTDIAFAKKFGMKAIMVLTGVSSLEDIKKSEYKPDLVLPSVYELIDYLKTL | soluble |
| MATMARWERIVEGVKSIALIKRKIISRGKRIALLVDGPNILRKELGVHLEDIVEALSSLGNIRVAKVILNQYAPQSLIEAVSNQGFEPVIVAGEIGVKLAVEAMREVYNPNIDIIALATRNTEFVPIILKAKEKGKETAIIGVEPGFSSALKHAADYVIVLESRGELSEEGNIEDIEEGKGEGGRGRRKNDRLDN | soluble |
| LTVSARDAPTKISTLAVKVHGGSRYATKDGVAHLLNRFNFQNTNTRSALKLVRESELLGGTFKSTLDREYITLKATFLKDDLPYYVNALADVLYKTAFKPHELTESVLPAARYDYAVAEQCPVKSAEDQLYAITFRKGLGNPLLYDGVERVSLQDIKDFADKVYTKENLEVSGENVVEADLKRFVDESLLSTLPAGKSLVSKSEPKFFLGEENRVRFIGDSVAAIGIPVNKASLAQYEVLANYLTSALSELSGLISSAKLDKFTDGGLFTLFVRDQDSAVVSSNIKKIVADLKKGKDLSPAINYTKLKNAVQNESVSSPIELNFDAVKDFKLGKFNYVAVGDVSNLPYLDEL | soluble |
| SNAKIIGYARVSFNAQKDDLERQIQLIKSYAEENGWDIQILKDIGSGLNEKRKNYKKLLKMVMNRKVEKVIIAYPDRLTRFGFETLKEFFKSYGTEIVIINKKHKTPQEELVEDLITIVSHFAGKLYGMHSHKYKKLTKTVKEIVREEDAKEKE | soluble |
| ITLKVAIYPYVPDPARFQAAVLDQWQRQEPGVKLEFTDWDSYSADPPDDLDVFVLDSIFLSHFVDAGYLLPFGSQDIDQAEDVLPFALQGAKRNGEVYGLPQILCTNLLFYRKGDLKIGQVDNIYELYKKIGTSHSEQIPPPQNKGLLINMAGGTTKASMYLEALIDVTGQYTEYDLLPPLDPLNDKVIRGLRLLINMAGEKPSQYVPEDGDAYVRASWFAQGSGRAFIGYSESMMRMGDYAEQVRFKPISSSAGQDIPLFYSDVVSVNSKTAHPELAKKLANVMASADTVEQALRPQADGQYPQYLLPARHQVYEALMQDYPIYSELAQIVNKPSNRVFRLGPEVRTWLKDAKQVLPEALGLTDVSSLAS | soluble |
| MNRIKVAILFGGCSEEHDVSVKSAIEIAANINKEKYEPLYIGITKSGVWKMCEKPCAEWENENCYSAVLSPDKKMHGLLVKKNHEYEINHVDVAFSALHGKSGEDGSIQGLFELSGIPFVGCDIQSSAICMDKSLTYIVAKNAGIATPAFWVINKDDRPVAATFTYPVFVKPARSGSSFGVKKVNSADELDYAIESARQYDSKILIEQAVSGCEVGCAVLGNSAALVVGEVDQIRLQYGIFRIHQEVEPEKGSENAVITVPADLSAEERGRIQETVKKIYKTLGCRGLARVDMFLQDNGRIVLNEVNTLPGFTSYSRYPRMMAAAGISLPELIDRLIVLALKG | soluble |
| MSLKMFEVPVSSVSISINSALLKGCRKFMVLGYGEIGKLAIKHLLSHKVECIYLIVRDKSKASDLEGEIVEVLDFNEKNQVINEIDCIVSCTAAPHTVVRNEDIKTEGETIHIYDLAVPRDVDKELSEKERVILKDIDEISKIDDKNKKIRKERMEEYKHIVEESIDEFLNWLKIREVSSKIRNIKIREGHHHHHH | not soluble |
